Measured values as given in the supplement of paper PMC10567573.

B1: TTC32 (parent)
chain: YSAYIRRCACAASSDESPGSKCSP
B2: FAM46D (parent)
chain: FQEAMTHLQHKLICTRKPEEIRGG

Variants of: B1
Assay: protein stability index of a GFP-peptide fusion (GPS, HEK-293T) (PSI 1-6); higher = more stable
Settings: c terminus: a fixed tail appended
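Further: lentivirally expressed fusions sorted by FACS into six bins by GFP to DsRed ratio, PSI derived from sequencing read proportions per bin multiplied by bin number.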

Protein stability index, by site and new letter:
S23: M 1.61 | L 2.08 | W 2.53 | K 2.06 | G 2.08
C10: V 2.07 | N 2.73 | D 3.2 | F 2.14 | G 3.46 | H 2.92 | L 2.28
I5: V 1.85 | Y 2.45 | L 2.12 | R 2.27 | P 2.24 | C 2.15 | S 2.52
G19: C 4.24 | I 1.89 | H 2.24 | A 2.02 | V 1.03 | S 1.51
K21: F 2.22 | I 1.86 | P 2.93 | V 1.62 | T 1.69 | G 2.02
E16: K 1.53 | A 1.44 | P 2.01 | R 1.62 | W 3.48 | L 1.58 | T 2.22 | C 1.83 | Q 2.18
R7: G 2.7 | M 2.14 | C 1.55 | Y 2.06 | V 1.64 | S 2.42 | W 2.53 | T 2.08
P24: S 1.95 | I 2.25 | H 2.54 | A 2.03 | N 2.31 | T 2.03 | C 4.33 | D 2 | L 2.1 | M 2.24
S2: G 2.37 | T 2.1 | A 2.38 | N 2.35 | R 1.82 | M 1.91 | E 2.7 | P 2.59
A9: V 2.17 | S 1.98 | I 2.38 | L 2.26 | F 1.76 | T 2.14 | Q 2.25
S14: Q 2.19 | M 1.4 | T 1.93 | E 2.65 | L 2 | D 2.38 | N 2.65 | W 1.92
Y1: D 3.44 | W 2.45 | F 2.27 | E 3.29 | L 2.61 | K 2.75 | T 2.52
S20: W 1.85 | V 1.79 | E 2.15 | D 2.7 | T 2.14 | K 2.23 | C 3.96 | R 1.65
P18: F 2.68 | T 2.42 | A 1.83 | M 1.68 | I 1.95 | R 2.06 | D 2.45
D15: W 1.6 | G 1.72 | A 3.53 | V 1.51 | P 1.99 | I 2.06 | H 2.37 | R 1.85 | Q 2.02 | K 1.81 | M 2.28 | F 2.34
A11: P 2.29 | I 1.94 | R 1.74 | F 2.11 | T 1.94 | N 2.35 | G 2.08 | Y 2.36 | Q 2.03 | D 1.98 | K 2.36
Y4: H 2.12 | Q 2.65 | S 2.29 | M 2.1 | G 3.35 | R 2.67 | V 3.07 | T 2.24 | K 2.5 | I 2.08
A12: D 2.49 | Y 1.75 | E 2.55 | T 1.94 | H 2.16 | W 2.08 | G 2.46 | F 2.15 | Q 2.12
S13: I 2 | M 1.55 | Y 2.13 | H 2.1 | R 2.21 | T 2.1 | V 1.49 | K 2.28 | L 1.69 | E 2.03
R6: V 1.74 | T 2.08 | K 1.97 | W 3.52
A3: F 1.86 | P 1.69 | L 2.18 | R 1.89 | N 1.54 | S 2.43 | C 2.02 | I 1.51 | V 2.05
C8: G 2.87 | F 2 | H 2.91 | M 2.05 | S 3.03 | W 2.48 | E 3.93 | A 3.5 | D 3.89 | N 3.41
S17: D 2.05 | A 2.17 | G 2.08 | P 2.44 | E 2.38
C22: I 1.85 | D 2.22 | E 2.96 | L 1.78 | N 2.28 | P 2.02 | R 2.14 | W 2.41 | Q 2.02 | A 2.72

Variants of: B2
Assay: as above
Settings: c terminus: a fixed tail appended

Protein stability index of substitutions, site by site:
G24: Y 2.59 | M 1.85 | T 2.96 | W 1.68 | C 2.52 | Q 2.91 | L 2.45 | S 2.9 | F 2.3 | H 2.26 | D 2.96 | N 2.51 | E 2.49 | R 2.07 | I 1.91 | P 2.64 | K 3.34 | A 2.26 | V 3.09
I21: P 3.36 | Q 3.05 | N 3.87 | A 3.27 | K 3.72 | Y 2.21 | V 2.43 | M 2.9 | W 2.07 | F 2.62 | D 3.26 | E 2.98 | T 3.56 | C 2.73 | L 2.34 | G 2.69 | S 3.74 | H 3.4 | R 3.93
G23: I 2.6 | K 3.19 | P 2.87 | T 2.14 | V 2.15 | A 2.76 | F 2.02 | H 2.61 | S 2.71 | Y 2.41 | D 3.08 | R 2.45 | L 2.66 | M 2.6 | Q 2.34 | N 3.01 | W 2.48 | C 2.08 | E 2.16
P18: C 1.3 | G 2.48 | K 1.82 | R 2.09 | H 2.33 | W 2.35 | D 2.7 | L 2.11 | V 2.54 | I 2 | F 2.61 | A 2.72 | M 2.24 | Q 2.19 | Y 2.14 | T 2.85 | S 2.43 | N 3.04 | E 3.41
K17: R 2.02 | T 2.65 | N 2.9 | Q 2.33 | S 2.75 | P 2.52 | Y 1.85 | V 2.64 | W 2.03
E20: P 2.39 | G 1.99 | A 2.15 | R 2.19 | M 2.03 | V 2.38 | L 2.05 | K 3.26 | T 2.5 | I 1.77 | Q 2.33 | C 2.3 | F 2.38 | Y 2.34 | S 2.33 | W 2.08 | D 2.69 | N 2.64 | H 1.89
R22: G 2.85 | K 3.07 | H 3.14 | L 2.7 | M 2.39 | D 3.3 | C 2.41 | W 1.41 | T 2.96 | N 2.93 | E 3.29 | Y 1.91 | F 2.34 | P 2.51 | I 2.41 | A 2.85 | Q 2.94 | V 3.04 | S 2.66
E19: V 2.01 | I 1.98 | T 2.28 | N 2.53 | M 1.58 | S 2.76 | A 2.79 | D 2.55 | F 2.09 | H 2.3 | R 1.42 | G 1.83 | L 2.26 | Y 2.15 | P 3.13 | K 2.67 | Q 2.23 | C 1.97
